Measured values reported in US20230355660A1.
Square brackets hold non-standard residues; d marks the D form. Ends that are not written are not given here.

target: mAB anti V5 (Thermo Scientific), mouse anti V5 antibody; assay: ELISA: 1 µg/ml mouse anti V5 antibody with increasing amounts of SADC, complexes captured on streptavidin plate via biotinylated SADC peptide, bound IgG detected with anti mouse IgG-HRP

Which EC50 does the source give for IPNPLLGLDGGSGDYKDDDDKGK[BiotinAca]GC (peptide, part only; not given: haptoglobin scaffold, part only, also: peptide conjugated to haptoglobin scaffold, copy number not given here) [SADC with haptoglobin scaffold carrying tagged V5 peptide] here?
Its EC50 is 0.0555 µg/mL.

Which EC50 does the source give for IPNPLLGLDGGSGDYKDDDDKGK[BiotinAca]GC (peptide, part only; not given: transferrin scaffold, part only, also: peptide conjugated to transferrin scaffold, copy number not given here) [SADC with transferrin scaffold carrying tagged V5 peptide] here?
Its EC50 is 0.007 µg/mL.

For IPNPLLGLDGGSGDYKDDDDKGK[BiotinAca]GC (peptide, part only; not given: albumin scaffold, part only, also: peptide conjugated to albumin scaffold, copy number not given here) [SADC with albumin scaffold carrying tagged V5 peptide], which EC50 is on record?
Its EC50 is 0.0279 µg/mL.
